From patent US20060018896

B1: functionally active murine recombinant MASP-2 protein (protein)
chain: SKWPEPVFGRLVSPGFPEKYADHQDRSWTLTAPPGYRLRLYFTHFDLELSYRCEYDFVKLSSGTKVLATLCGQESTDTEQAPGNDTFYSLGPSLKVTFHSDYSNEKPFTGFEAFYAAEDVDECRVSLGDSVPCDHYCHNYLGGYYCSCRAGYVLHQNKHTCSALCSGQVFTGKSGYLSSPEYPQPYPKLSSCTYSIRLEDGFSVILDFVESFDVETHPEAQCPYDSLKIQTDKGEHGPFCGKTLPPRIETDSHKVTITFATDESGNHTGWKIHYTSTARPCPDPTAPPNGSISPVQAIYVLKDRFYVFCKTGFELLQGSVPLKSFTAVCQKDGSWDRPMPECS
B2: catalytically inactive murine MASP-2A recombinant protein (protein)
chain: B1 chain

Target: purified human C4, P0C0L4
Sequence (P0C0L4 whole entry, looked up): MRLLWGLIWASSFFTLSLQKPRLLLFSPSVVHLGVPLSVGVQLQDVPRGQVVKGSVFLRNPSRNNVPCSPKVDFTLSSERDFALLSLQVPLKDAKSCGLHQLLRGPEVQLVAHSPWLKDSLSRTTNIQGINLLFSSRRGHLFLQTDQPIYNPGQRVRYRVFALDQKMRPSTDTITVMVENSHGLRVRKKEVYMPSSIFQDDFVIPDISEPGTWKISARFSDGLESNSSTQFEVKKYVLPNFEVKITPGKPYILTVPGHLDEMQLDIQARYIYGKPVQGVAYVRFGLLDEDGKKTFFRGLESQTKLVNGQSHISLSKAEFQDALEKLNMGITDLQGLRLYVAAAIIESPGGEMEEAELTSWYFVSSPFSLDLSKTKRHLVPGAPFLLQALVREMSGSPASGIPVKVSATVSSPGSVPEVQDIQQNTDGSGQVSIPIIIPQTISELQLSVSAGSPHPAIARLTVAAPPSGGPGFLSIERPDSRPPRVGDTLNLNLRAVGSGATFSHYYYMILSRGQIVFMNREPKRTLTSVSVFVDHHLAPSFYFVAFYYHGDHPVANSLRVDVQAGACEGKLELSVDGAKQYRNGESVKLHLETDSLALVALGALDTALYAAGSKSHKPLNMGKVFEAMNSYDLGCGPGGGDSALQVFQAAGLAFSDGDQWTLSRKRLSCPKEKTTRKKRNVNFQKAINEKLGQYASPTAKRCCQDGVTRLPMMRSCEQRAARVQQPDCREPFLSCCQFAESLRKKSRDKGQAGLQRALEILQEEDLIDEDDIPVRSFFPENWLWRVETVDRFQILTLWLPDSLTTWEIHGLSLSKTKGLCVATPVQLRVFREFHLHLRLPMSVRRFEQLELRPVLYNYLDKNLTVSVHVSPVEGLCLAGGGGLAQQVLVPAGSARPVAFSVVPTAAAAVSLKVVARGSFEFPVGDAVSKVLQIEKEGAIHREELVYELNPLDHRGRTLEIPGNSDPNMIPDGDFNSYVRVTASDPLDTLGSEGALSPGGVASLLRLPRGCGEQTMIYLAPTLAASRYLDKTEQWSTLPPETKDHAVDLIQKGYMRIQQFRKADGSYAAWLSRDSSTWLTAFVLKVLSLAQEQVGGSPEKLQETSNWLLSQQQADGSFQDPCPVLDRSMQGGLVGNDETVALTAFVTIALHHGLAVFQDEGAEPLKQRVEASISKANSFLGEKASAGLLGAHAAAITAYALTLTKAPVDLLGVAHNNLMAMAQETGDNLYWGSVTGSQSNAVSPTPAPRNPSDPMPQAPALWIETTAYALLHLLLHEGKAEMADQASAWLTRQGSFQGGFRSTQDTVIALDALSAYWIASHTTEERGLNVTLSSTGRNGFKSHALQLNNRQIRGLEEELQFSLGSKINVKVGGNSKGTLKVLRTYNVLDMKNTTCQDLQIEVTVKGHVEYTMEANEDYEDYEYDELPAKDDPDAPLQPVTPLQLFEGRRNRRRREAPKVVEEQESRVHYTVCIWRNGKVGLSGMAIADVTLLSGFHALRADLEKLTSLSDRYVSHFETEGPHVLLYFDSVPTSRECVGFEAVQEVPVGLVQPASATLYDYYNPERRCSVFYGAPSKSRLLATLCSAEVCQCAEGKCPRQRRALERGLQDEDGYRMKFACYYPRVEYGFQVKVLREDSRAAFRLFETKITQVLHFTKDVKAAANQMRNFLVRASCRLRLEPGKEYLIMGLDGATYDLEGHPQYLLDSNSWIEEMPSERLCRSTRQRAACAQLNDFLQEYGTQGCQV

Protein	lectin pathway-dependent C4 activation (C4 cleavage assay, C4b deposition on mannan) in pooled MASP-2-/- mouse serum
B1	restored lectin pathway-dependent C4 activation in a protein concentration dependent manner
B2	did not restore C4 activation
